Patent US20240117055A1

Experiments:
[1] = target: Recombinant Human Axl Protein Axl-tag 5 (human) (UniProt P30530); assay: competition ELISA on immobilized Axl-tag 5; unlabeled antibody 50 ug/mL; competitor Biot-M77-297b81.1.1 (1 ug/mL), whose signal is read
[2] = target: Recombinant Human Axl Protein Axl-tag 5 (human) (UniProt P30530); assay: competition ELISA on immobilized Axl-tag 5; unlabeled antibody 50 ug/mL; competitor Biot-v77-2a37.1 (1 ug/mL), whose signal is read
[3] = target: Recombinant Human Axl Protein Axl-tag 5 (human) (UniProt P30530); assay: competition ELISA on immobilized Axl-tag 5; unlabeled antibody 50 ug/mL; competitor Biot-M77-297b81.1.1 (1 ug/mL)
[4] = target: Recombinant Human Axl Protein Axl-tag 5 (human) (UniProt P30530); assay: competition ELISA on immobilized Axl-tag 5; unlabeled antibody 50 ug/mL; competitor Biot-v77-2a37.1 (1 ug/mL)

UniProt P30530, sequence (P30530 26-451): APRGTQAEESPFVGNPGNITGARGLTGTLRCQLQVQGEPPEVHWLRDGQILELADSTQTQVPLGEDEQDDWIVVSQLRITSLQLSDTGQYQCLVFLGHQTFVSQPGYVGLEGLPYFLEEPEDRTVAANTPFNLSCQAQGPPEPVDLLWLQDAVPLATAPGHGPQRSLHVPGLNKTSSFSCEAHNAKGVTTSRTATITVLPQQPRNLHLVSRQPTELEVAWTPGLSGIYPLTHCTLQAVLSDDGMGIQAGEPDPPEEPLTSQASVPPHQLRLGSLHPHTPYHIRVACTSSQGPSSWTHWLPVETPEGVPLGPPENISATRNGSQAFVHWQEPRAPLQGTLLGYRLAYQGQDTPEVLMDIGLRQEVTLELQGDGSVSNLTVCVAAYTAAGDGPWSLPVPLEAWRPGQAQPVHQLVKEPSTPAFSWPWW

For “Cell Signaling rabbit monoclonal anti-AXL antibody AXL(C89E7)”, the OD (650 nm) [1] was 2.13 OD (650 nm), the OD (650 nm) [2] was 1.81 OD (650 nm) and the % competition [3] was 1.5%. For the same substance, the % competition [4] was 3.3%.
